Reference: patent US20230190653A1, “METHOD FOR REDUCING OFF-TARGET UPTAKE OR ACCUMULATION OF AGENTS” (The Regents of the University of Colorado, A Body Corporate, priority 2021, published 2023)

Columns and labels:
[1] = Particle size measurement (Malvern Zetasizer / dynamic light scattering); format: physicochemical; settings: approximately 150 kD
Experimental: Lipids were dissolved in chloroform and used to prepare liposomes comprised of sphingosine:cholesterol:DAPC at a mole ratio of 3:2:5 in water as previously described. Briefly, the lipid mixture was dried with nitrogen gas to achieve a thin film that was incubated under vacuum overnight before rehydration with distilled water and sonication to achieve clarity (1-2 min). Lactosylceramide or PEG-ceramide were included in the chloroform-lipid mixture and incorporated into liposomes at a 5% mole ratio as previously described. […] The diameters of these preparations were 237.9±7.5 (lactose) and 273.4±10.4 (PEG) nm as reported previously.
Sphingosine, cholesterol, 1,2-diarachidoyl-sn-glycero-3-phosphocholine (DAPC), and C16-PEG750-Ceramide were purchased from Avanti® Polar Lipids (Alabaster, Ala.) and used to prepare liposomes at a 3:2:4.5:0.5 mole ratio (respectively) as previously described. The liposomes preparations have an average diameter of 135 nm, a PDI of 0.137, and were prepared in 5% dextrose to adjust the tonicity of the injection solution. […] A Malvern Zetasizer Nano-ZS was used for all size measurements.
FITC-dextran was chosen for these studies since it is commonly used to quantify endothelial and epithelial cell barrier permeability.

[2] = Direct injection of IFN-γ into tumors, persistence of cytokine levels; format: in vivo; settings: preliminary, data not shown
Description: In contrast to inflammatory cytokines (e.g., TNF-α, IFN-γ, IFN-α, IFN-β) that increase vascular permeability, IFN-λ works specifically on the endothelial/epithelial cells to strengthen barrier integrity and prevent viral invasion. […] Ultimately, the lack of a tightening response in the tumor epithelium allows nanoparticles unaltered access to the tumor upon repeat administration.

[3] = tested on: CT26 tumor-bearing mice; assay: Doxil accumulation in organs and tumor after IFN-λ pre-treatment; format: in vivo, Balb/c mice
Description: Tumor Bearing Experiments: Prior to treatment, female immunocompetent Balb/c mice 6-10 weeks old were acquired from Jackson labs (Bar Harbor, Me.) and allowed to acclimate for one week. The mice were then inoculated in the right flank with approximately 1 million CT26 murine colon carcinoma cells (ATCC #CRL-2638). Tumors were allowed to grow for approximately 7 days or until tumor size reached at least 100 mm^3. […] Twenty-four hours after the dextran/Doxil® injections, animals were euthanized, and organs collected for dextran/drug accumulation analysis.
A standard curve of fluorescence for doxorubicin was determined through fluorescence measurements of a serially diluted stock solution of the Doxil® in 90% isopropyl alcohol (IPA) acidified with HCl to a final concentration of 0.075 M. Fluorescence measurements were conducted in a CellStar™ μClear™ 96-Well, Cell Culture-Treated, Flat-Bottom Microplate from Greiner Bio-One™ (Monroe, N.C.) at an excitation of 470 nm and emission of 595 nm using a Molecular Devices (San Jose, Calif.) SpectraMax® M5. […] The equation from the resulting standard curve of fluorescence from each specific organ was used to calculate the total amount of doxorubicin extracted from a corresponding Doxil® treated organ.
Organs collected from animals were immediately flash-frozen in liquid nitrogen and stored at −80° C. until analysis. […] Doxorubicin fluorescence of the extracted solution was then measured, and total doxorubicin accumulation was then calculated using the doxorubicin fluorescence standard curves described above. […]
To assess the effects of IFN-λ pre-treatment on Doxil® accumulation, mice were intravenously injected with either 100 μL of 1×PBS or 1 μg of IFN-λ in 100 μL 1×PBS. […] After an additional 24 hours following Doxil administration, tissues were harvested from experimental mice and the total Doxil accumulation in tissues was determined using the extraction method and standard curves described above. […]

[4] = tested on: IFNLR1 (interferon lambda receptor 1) gene expression; assay: IFNLR1 gene expression by RT-qPCR in primary human liver epithelial cells; format: cell-based; settings: 24 hours treatment
Experimental: (§1) Interferon Lambda Receptor 1 (IFNλR1) mRNA Expression Quantification by Reverse Transcription-Polymerase Chain Reaction (RT-qPCR): Human Lung Microvascular Endothelial Cells (540-05A) (HLMVECs) purchased from Sigma-Aldrich® (Burlington, Mass.) were cultured and left untreated or treated with 100 ng/mL recombinant human IL-29 (R&D Systems® 1598-IL-025) or 100 ng/mL IL-28A/B (R&D Systems® 8417-IL-025/5259-IL-025) for 24 hours. […] After 24 hours, using TaqMan™ Fast Advanced Cells-to-CT™ kit purchased from Invitrogen™ (Waltham, Mass.), cells were collected according to manufacturer recommendations and IFNλR1 expression was quantified. PCR assay ID Hs00417120_ml (ThermoFisher Scientific™, Agawam, M A) was used to quantify IFNλR1 gene expression and PCR assay ID Hs03928985_g1 (ThermoFisher Scientific™, Agawam, M A) was used to quantify reference gene RNA18S5 expression.
(§2) To test the hypothesis that microvascular endothelial cells and liver epithelial cells respond to IFN-λ, real-time quantitative polymerase chain reaction (RT-qPCR) analysis was used to determine Interferon Lambda Receptor 1 (IFN λR1) gene expression in primary Human Lung Microvascular Endothelial Cells and primary Human Liver Epithelial Cells (TABLES 4 and 5). […] However, liver epithelial cells do express IFN λR1 and show an increase in IFN λR1 gene expression in response to IFN-λ and lipoplex treatment.

[5] = tested on: IFNLR1 gene expression; assay: IFNLR1 gene expression by RT-qPCR in primary human lung microvascular endothelial cells; format: cell-based; settings: 24 hours treatment, 100 ng/mL
Experimental: as §1, §2

FITC-dextran
hydrodynamic diameter [1]: approximately 100 nm

IFN-γ: interferon gamma injected directly into tumors
time cytokine levels are maintained in the tumor [2]: at least 4 h

B1: IFN-λ: recombinant mouse IFN-λ2 (R&D Systems, 4635-ML-025/CF) (protein, UniProt Q4VK74 20-193, looked up)
Interferon lambda-2: DPVPRATRLPVEAKDCHIAQFKSLSPKELQAFKKAKDAIEKRLLEKDLRCSSHLFPRAWDLKQLQVQERPKALQAEVALTLKVWENMTDSALATILGQPLHTLSHIHSQLQTCTQLQATAEPRSPSRRLSRWLHRLQEAQSKETPGCLEASVTSNLFRLLTRDLKCVANGDQCV
Doxil accumulation in liver, spleen vs PBS pretreatment ([3]; 1 μg IFN-λ iv 24 h before 10 mg/kg Doxil): reduction
Doxil accumulation in the skin, kidney, lungs, and heart vs PBS pretreatment ([3]; 1 μg IFN-λ iv 24 h before 10 mg/kg Doxil, tissues 24 h later): significantly reduces
Doxil accumulation in tumor and plasma vs PBS pretreatment ([3]; not statistically significant): increase

B2: IL29: recombinant human IL-29 (R&D Systems 1598-IL-025) (protein, UniProt Q8IU54 20-200, looked up)
Interferon lambda-1: GPVPTSKPTTTGKGCHIGRFKSLSPQELASFKKARDALEESLKLKNWSCSSPVFPGNWDLRLLQVRERPVALEAELALTLKVLEAAAGPALEDVLDQPLHTLHHILSQLQACIQPQPTAGPRPRGRLHHWLHRLQEAPKKESAGCLEASVTFNLFRLLTRDLKYVADGNLCLRTSTHPEST
ΔΔCt ([4]; vs untreated): −1.092
2^-ΔΔCt (Relative fold-change compared to untreated) ([4]; 100 ng/mL cytokine or 1 μg/mL lipoplexes): 2.132
ΔCt mean ([4]; 100 ng/mL cytokine or 1 μg/mL lipoplexes, reference RNA18S5): 19.476
IFN λR1 expression in endothelial cells [5]: no expression detected
ΔCt mean [5]: No Amplification
